Data reported in US20210269531A1 (TSINGHUA UNIVERSITY, published 2021).

Columns and labels:
[1] = target: human TrkB on CHO cells (hTrkB-CHO cells) (human) (UniProt Q16620); experiment: cell-based or functional assay
[2] = target: T1, TrkB full length (FL, WT) conjugated with GFP, expressed in 293T cells (UniProt Q16620 32-822); experiment: immunoprecipitation of GFP-tagged full-length and truncated TrkB from 293T lysates; binding domain
T1 construct: whole, on cells; The protein stood in cell lysate, not on whole cells; the numbering of the truncation (366-822) fits human TrkB; not shown: GFP
Procedure: Cell were washed by cold PBS for 3 times and were lysed in buffer containing 50 mM Tris-HCl (pH 8.0), 250 mM NaCl, 1% NP-40, 0.5% deoxycholate, 0.1% SDS, and protease inhibitors (4693132001, Roche) (Roche Diagnostics) for 20 min on ice. After centrifugation to remove insoluble material, the proteins in lysate incubated with target protein over night at 4° C. 20 μl Protein A beads (sc-2003, Santacruz) were added to the protein mixture. After these mixture incubated for 4-5 h at 4° C., we washed beads for 3 times with lysis buffer. Then the supernatant was removed and 20 μl loading buffer was added to the deposit beads. The beads coupled proteins were denatured and uncoupled by 95° C. heat for 10 min.
Five extracellular domain truncated TrkB constructs were designed as shown in FIG. 2A and transfected to 293T cell for expression respectively. The lysate were collected. Immunoprecipitation was used to test the antibodies that cannot bind to truncated TrkB conjugated with GFP (see FIG. 2B). […] The others such as TrkB-agoAb418 antibody may bind to D5 domain. Δ1 lacks D1 domain (represented by Cys 1), Δ2 lacks D1 and D2 (represented by LAM) domains, Δ3 lacks D1-D3 (represented by Cys 2) domains, Δ4 lacks D1-D4 (represented by Ig1) domains, and Δ5 lacks D1-D5 (represented by Ig2) domains. “TM” represents transmembrane domain, “C” represents control (blank, empty vector). FL represents full length gene (WT).

TrkA = target: T2, TrkA (Homo sapiens (Human), UniProt P04629 33-423); experiment: ELISA on coated TrkA, antibody at 10 nM, 1 nM and 0.1 nM
T2 construct: also called Tyrosine Receptor A
Procedure: (§1) TrkB agonist antibodies can bind to TrkB specifically but not bind to TrkA, […], TrkC or P75 in ELISA assay. Data of exemplary antibodies TrkB-agoAb104, TrkB-agoAb202, TrkB-agoAb203, TrkB-agoAb303, TrkB-agoAb1104 and TrkB-agoAb2908 are shown in FIG. 1A-1F. 50 μL of […] protein was coated on each well of the plate, and 50 μL of 10 nM, 1 nM or 0.1 nM antibody was added to perform ELISA assay.

P75 = target: T3, P75 (Homo sapiens (Human), UniProt P08138 29-250); experiment: ELISA on coated P75, antibody at 10 nM, 1 nM and 0.1 nM
T3 construct: also called P75 neurotrophin receptor; P75NTR
T3 sequence: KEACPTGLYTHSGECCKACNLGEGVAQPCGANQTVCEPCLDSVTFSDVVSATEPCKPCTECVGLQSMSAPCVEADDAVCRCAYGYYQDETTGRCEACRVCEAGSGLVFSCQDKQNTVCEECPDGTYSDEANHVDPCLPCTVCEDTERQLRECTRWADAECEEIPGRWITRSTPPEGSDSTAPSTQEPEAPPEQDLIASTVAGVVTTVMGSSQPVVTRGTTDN
Procedure: as §1

[3] = target: T4, human TrkB on CHO cells (hTrkB-CHO cells) (human, UniProt Q16620 32-822); experiment: cell-based or functional assay
[4] = target: T5, human TrkB (recombinant protein coated in ELISA / immobilised in Biacore) (human, UniProt Q16620 30-430, limits assumed); experiment: Biacore T200 SPR, target protein on CM5 chip, antibody in 7 dilutions as fluid phase
T5 construct: also called target protein; antigen
Procedure: Wash CM5 chip in PBS with sonication. Replace the buffer of candidate antibodies and the target protein with the same PBS. The target protein was diluted to 1 μg/μL as the solid phase and the candidate antibodies were serial diluted to 7 dilutions as the fluid phase. After obtaining the signal, Biacore Evaluation Software was used to create fitting curves. ch2<Rmax/10 indicates good confidence level.
Biacore was used to analyze the affinity of antigen-antibody interaction.

[5] = target: T4, human TrkB on CHO cells (hTrkB-CHO …); experiment: cell-based or functional assay; remark: listed apart in the source
[6] = target: T4, human TrkB on CHO cells (hTrkB-CHO …); experiment: cell-based or functional assay; remark: listed apart in the source

T2 sequence (P04629 33-423 limits assumed): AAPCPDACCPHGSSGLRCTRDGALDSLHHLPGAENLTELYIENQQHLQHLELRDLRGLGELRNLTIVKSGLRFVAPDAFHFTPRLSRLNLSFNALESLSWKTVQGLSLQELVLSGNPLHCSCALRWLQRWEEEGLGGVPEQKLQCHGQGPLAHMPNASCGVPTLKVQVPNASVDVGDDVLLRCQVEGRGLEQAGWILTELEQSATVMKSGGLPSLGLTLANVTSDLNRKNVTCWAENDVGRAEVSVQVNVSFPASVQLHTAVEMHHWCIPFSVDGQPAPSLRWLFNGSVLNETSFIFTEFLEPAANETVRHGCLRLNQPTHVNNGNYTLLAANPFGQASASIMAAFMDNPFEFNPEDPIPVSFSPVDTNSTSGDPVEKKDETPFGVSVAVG
T1 sequence (Q16620 32-822): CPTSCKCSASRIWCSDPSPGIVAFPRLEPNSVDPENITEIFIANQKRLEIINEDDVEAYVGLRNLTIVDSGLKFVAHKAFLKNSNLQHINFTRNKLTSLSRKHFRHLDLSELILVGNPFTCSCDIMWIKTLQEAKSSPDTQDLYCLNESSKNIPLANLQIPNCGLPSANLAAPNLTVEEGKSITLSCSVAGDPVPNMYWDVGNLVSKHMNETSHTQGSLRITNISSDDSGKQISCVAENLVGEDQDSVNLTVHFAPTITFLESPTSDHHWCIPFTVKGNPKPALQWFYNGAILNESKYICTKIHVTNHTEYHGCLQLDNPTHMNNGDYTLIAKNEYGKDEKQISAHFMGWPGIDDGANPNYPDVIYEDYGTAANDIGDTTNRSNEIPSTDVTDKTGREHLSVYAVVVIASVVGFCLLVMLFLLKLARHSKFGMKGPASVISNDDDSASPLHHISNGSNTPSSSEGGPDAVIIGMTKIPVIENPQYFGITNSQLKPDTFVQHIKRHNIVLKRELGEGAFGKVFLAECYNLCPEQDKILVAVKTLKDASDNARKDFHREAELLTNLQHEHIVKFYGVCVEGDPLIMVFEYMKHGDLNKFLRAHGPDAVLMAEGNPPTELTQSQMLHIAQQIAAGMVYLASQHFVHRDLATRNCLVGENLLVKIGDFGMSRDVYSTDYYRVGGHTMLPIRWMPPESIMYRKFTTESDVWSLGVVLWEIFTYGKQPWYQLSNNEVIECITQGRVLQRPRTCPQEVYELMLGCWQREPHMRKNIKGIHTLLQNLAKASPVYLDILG
T4 sequence (Q16620 32-822): as above
T5 sequence (Q16620 30-430 limits assumed): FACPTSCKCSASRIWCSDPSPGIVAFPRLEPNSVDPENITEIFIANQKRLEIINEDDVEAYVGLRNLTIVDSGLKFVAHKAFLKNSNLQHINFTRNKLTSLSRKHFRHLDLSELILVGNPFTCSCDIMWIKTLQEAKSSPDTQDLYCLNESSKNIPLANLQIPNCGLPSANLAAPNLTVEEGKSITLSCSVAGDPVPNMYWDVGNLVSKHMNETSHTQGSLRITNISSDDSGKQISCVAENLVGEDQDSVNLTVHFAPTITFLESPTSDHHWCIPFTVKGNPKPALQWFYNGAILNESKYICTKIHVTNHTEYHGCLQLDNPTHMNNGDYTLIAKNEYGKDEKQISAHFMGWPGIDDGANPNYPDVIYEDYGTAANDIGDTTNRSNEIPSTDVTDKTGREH
Sequence of human TrkB on CHO cells (hTrkB-CHO cells) (human) (Q16620 32-822): as the sequence (Q16620 32-822) above

“brain-derived neurotrophic factor (BDNF) (from UniProt P23560 129-247) (ligand)” gave an EC50 of TrkB Try515 phosphorylation, Alphalisa, hTrkB-CHO cells treated 30 min [1] of 1.39 nM.

B1: TrkB-agoAb6916 (antibody, V domains shown)
VH: QVQLQQSGTELMKPGASVKISCKAAGYTISSYWVEWVKQRPGHGLEWIGEILPGGGSTNYNEKFKGKATFTADISSNTAYMQLSNLTSEDSAVYYCASSDYWFAYWGQGTLVTVSA
VL: QIVLTQSPAIMSASPGEKVTMTCSASSSINYTHWFQQKPGTSPKRWIYDTSKLASGVPVRFSGSGSGTSYSLTISSMEAEDAATYYCHQRSSYPWTFGGGTKLEIK
notes: Mouse monoclonal antibody
B1: binds [2].

B2: TrkB-agoAb5702 (antibody, IgG1, V domains shown)
VH: DVQLVESGGGLVQPGGSRKLSCAASGFTFSSFGMHWVRQAPEKGLEWVAYITSGSNTIYYADTVKGRFTISRDNPKNTLFLQMTSLRSEDTALYYCARDGYFLDALDYWGQGTSVTVSS
VL: DVQITQSPSYLAASPGETITINCRASKSISKYLAWYQEKPGKTNKLLIYSGSTLQSGIPSRFSGSGSGTDFTLTISSLEPEDFAMYYCQQHNEFPLTFGAGTKLELK
B2: binds [2].

B3: TrkB-agoAbB901 (antibody, IgG2, V domains shown)
VH: EVKLVESGGGLVQPGGSLKLSCAASGFDFSRYWMSWVRQAPGKGLEWIGEINPDGSTINYTPSLKDKFIISRDNAKNTLYLQMSKVRSEDTALYYCARGNYYGSSLAWFAYWGQGTLVTVSA
VL: DIQMTQSPASQSASLGESVTITCLASQTIGTLLAWYQQKPGKSPQLLIYAATTLADGVPSRFRGSGSGTKFSFKISSLQAEDFVSYYCQQFYSTPYTFGGGTKLEIK
notes: also called TrkB-agoAb901
B3: binds [2].

B4: TrkB-agoAb2908 (antibody, IgG1, V domains shown)
VH: QVQLQQSGPELVKPGASVKISCKASGYTFSSSWMNWVKQRPGQGLEWIGRIYPGDGHTNYNGKFKGKATLTADKSSSTAYMQLTSLTSVDSGVYFCARSGYGYGFDCWGQGTTLTVSS
VL: NIVLTQSPASLAVSLGQRATISCRASESVDNYGNSLMHWYQQKPGQPPKLLIYLASNLESGVPARFSGSGSRTDFTLTIDPVEADDAATYYCQQNNEDPPWTFGGGTKLEIKR
B4: no binding (tested: 10 nM) (TrkA); no binding (tested: 10 nM) (P75).

B5: TrkB-agoAb1104 (antibody, IgG1, V domains shown)
VH: QVQLQQSGAELARPGASVKLSCKASGYTFTRYWMQWVKQRPGQGLEWIGAIYPGDGDTRYTQKFKGKATLTADKSSSTAYMQLSSLASEDSAVYYCAGSGLGRAWFTYWGQGTLVTVSA
VL: DIQMTQSPASLSASVGETVTITCRSSENIYSYLAWYQQKQGKSPQLLVYNAKTLAEGVPSRFSGSGSGTQFSLKINSLQPEDFGSYYCQHHYGPPYTFGGGTKLEIK
B5: binds [2]; no binding (tested: 10 nM) (TrkA); no binding (tested: 10 nM) (P75).

B6: TrkB-agoAb203 (antibody, V domains shown)
VH: DVKLVESGGGLVKPGGSLKLSCAASGFTFSSYTMSWVRQTPEKRLEWVATISSGGDYTYFPDSVKGRFTMSRDNAKNALYLQMSSLKSEDTAMYYCTRESGRGDFDYWGQGTTLTVSS
VL: DVLMTQTPLSLPVSLGDQASISCRSSQNIVHSNGNTYLEWYLQKPGQSPNLLIYNVSNRFSGVPDRFSGSGSGTDFTLKISRVEAEDLGVYYCFQGSHFPWTFGGGTKLEIT
With B6 the “in vitro half life (T1/2) from the time course of TrkB phosphorylation, Alphalisa, cells treated at EC50” value [3] was > 24 h, the Kd [4] was 0.0529 nM and the “EC50 of TrkB Try515 phosphorylation, Alphalisa, hTrkB-CHO cells treated 30 min” value [5] was 2.84 nM.

B7: TrkB-agoAb303 (antibody, V domains shown)
VH: B6 VH
VL: B6 VL
notes: Mouse monoclonal antibody
B7 was tested, and the “EC50 (read off the curve)” value [6] was ~1 nM, the “in vitro half life (T1/2) from the time course of TrkB phosphorylation, Alphalisa, cells treated at EC50” value [3] was > 24 h and the binding result (TrkA) was “no binding (tested: 10 nM)”. The Kd [4] was 4.02 nM, the “EC50 of TrkB Try515 phosphorylation, Alphalisa, hTrkB-CHO cells treated 30 min” value [5] was 1.33 nM and the binding result (P75) was “no binding (tested: 10 nM)”.
